Measured values reported in patent US20230265151A1, “GIP/GLP1 CO-AGONIST COMPOUNDS” (priority 2020, published 2023).

T1: human GIP receptor (human) (UniProt P48546)
T1 sequence (looked up): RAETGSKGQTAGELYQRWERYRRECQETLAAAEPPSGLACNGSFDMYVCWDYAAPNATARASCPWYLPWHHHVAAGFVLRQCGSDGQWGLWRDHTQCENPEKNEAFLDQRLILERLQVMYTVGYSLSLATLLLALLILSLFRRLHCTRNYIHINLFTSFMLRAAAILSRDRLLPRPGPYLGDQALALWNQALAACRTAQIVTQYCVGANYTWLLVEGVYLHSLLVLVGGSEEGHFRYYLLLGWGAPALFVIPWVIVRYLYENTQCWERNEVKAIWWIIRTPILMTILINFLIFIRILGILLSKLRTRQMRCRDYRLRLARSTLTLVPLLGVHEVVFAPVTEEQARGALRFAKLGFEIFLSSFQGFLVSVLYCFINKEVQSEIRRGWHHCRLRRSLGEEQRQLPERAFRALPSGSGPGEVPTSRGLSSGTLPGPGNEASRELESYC

T2: human GIP receptor (human, UniProt P48546 22-466)
T2 sequence (looked up): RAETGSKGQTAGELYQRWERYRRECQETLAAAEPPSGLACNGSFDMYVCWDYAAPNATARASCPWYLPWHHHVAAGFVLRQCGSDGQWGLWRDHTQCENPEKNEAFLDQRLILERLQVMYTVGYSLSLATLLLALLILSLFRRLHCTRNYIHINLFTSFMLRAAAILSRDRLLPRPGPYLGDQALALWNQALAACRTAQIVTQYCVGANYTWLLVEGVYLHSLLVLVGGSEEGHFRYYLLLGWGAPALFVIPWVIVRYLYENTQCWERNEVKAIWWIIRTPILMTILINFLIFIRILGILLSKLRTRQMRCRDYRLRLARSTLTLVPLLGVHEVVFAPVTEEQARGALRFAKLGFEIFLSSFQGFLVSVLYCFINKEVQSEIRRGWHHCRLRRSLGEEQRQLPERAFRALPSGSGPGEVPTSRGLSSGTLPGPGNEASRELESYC


Tests used:
Assay in all cases: cell-based or functional assay
[1] = biological target: human glucagon receptor (human) (UniProt P47871)
hGLP-1R = hGLP-1R (Homo sapiens, UniProt P43220)
[2] = biological target: T1, human GIP receptor (human)
human GIP receptor = biological target: T2, human GIP receptor
human GLP-1 receptor = human GLP-1 receptor (human, UniProt P43220 24-463)

| Binder | cAMP EC50 [1] | cAMP EC50 (hGLP-1R) | cAMP Emax (hGLP-1R) | cAMP EC50 [2] | cAMP Emax [2] | cAMP EC50 (1.0% HSA) (human GIP receptor) | cAMP Emax (1.0% HSA) (human GIP receptor) | cAMP EC50 (1.0% HSA) (human GLP-1 receptor) |
| --- | --- | --- | --- | --- | --- | --- | --- | --- |
| YXEGTXTSDXXIXLDXKAQXEFIXXLIKGGPSSGAPPPS (Y-Aib-EGT-αMeF(2F)-TSD-4Pal-Aib-I-αMeL-LD-Orn-K((2-[2-(2-Amino-ethoxy)-ethoxy]-acetyl)-(γ-Glu)-CO-(CH2)10-CH3)AQ-Aib-EFI-(D-Glu)-αMeY-LIK((2-[2-(2-Amino-ethoxy)-ethoxy]-acetyl)-(γ-Glu)-CO-(CH2)10-CH3)GGPSSGAPPPS-NH2) [Example 427] | > 9950 nM | 0.206 nM | 109% | 0.0132 nM | 95.9% | 2.04 nM | 92.4% | 25.1 nM |
| YXEGTXTSDXXIXLDXKAQXEFIXXLIKGGPSSGAPPPS (Y-Aib-EGT-αMeF(2F)-TSD-4Pal-Aib-I-αMeL-LD-Orn-K((2-[2-(2-Amino-ethoxy)-ethoxy]-acetyl)3-(γ-Glu)-CO-(CH2)10-CH3)AQ-Aib-EFI-(D-Glu)-αMeY-LIK((2-[2-(2-Amino-ethoxy)-ethoxy]-acetyl)3-(γ-Glu)-CO-(CH2)10-CH3)GGPSSGAPPPS-NH2) [Example 423] | > 9950 nM | 0.0721 nM | 105% | 0.00658 nM | 104% | 0.294 nM | 89.7% | 4.74 nM |
| YXEGTXTSDXXIXLDXKAQXEFIXXLIKGGPSSGAPPPS (Y-Aib-EGT-αMeF(2F)-TSD-4Pal-Aib-I-αMeL-LD-Orn-K((2-[2-(2-Amino-ethoxy)-ethoxy]-acetyl)2-CO-(CH2)12-CO2H)AQ-Aib-EFI-(D-Glu)-αMeY-LIK((2-[2-(2-Amino-ethoxy)-ethoxy]-acetyl)2-CO-(CH2)12-CO2H)GGPSSGAPPPS-NH2) [Example 387] | > 9950 nM | 0.32 nM | 101% | 0.0137 nM | 102% | 0.278 nM | 93% | 4.4 nM |
| YXEGTXTSDXXIXLDXKAQXEFIXXLIKGGPSSGAPPPS (Y-Aib-EGT-αMeF(2F)-TSD-4Pal-Aib-I-αMeL-LD-Orn-K((2-[2-(2-Amino-ethoxy)-ethoxy]-acetyl)-Aoc-CO-(CH2)12-CO2H)AQ-Aib-EFI-(D-Glu)-αMeY-LIK(((2-[2-(2-Amino-ethoxy)-ethoxy]-acetyl)-Aoc-CO-(CH2)12-CO2H)GGPSSGAPPPS-NH2)) [Example 465] | > 9950 nM | 0.413 nM | 98.6% | 0.0174 nM | 94.9% | 3.63 nM | 94.4% | 73.2 nM |
| YXEGTXTSDXXIXLDXKAQXEFIXXLIKGGPSSGAPPPS (Y-Aib-EGT-αMeF(2F)-TSD-4Pal-Aib-I-αMeL-LD-Orn-K((2-[2-(2-Amino-ethoxy)-ethoxy]-acetyl)2-(γ-Glu)-CO-(CH2)12-CO2H)AQ-Aib-EFI-(D-Glu)-αMeY-LIK((2-[2-(2-Amino-ethoxy)-ethoxy]-acetyl)2-(γ-Glu)-CO-(CH2)12-CO2H)GGPSSGAPPPS-NH2) [Example 358] | > 10100 nM | 0.773 nM | 107% | 0.0137 nM | 99.6% | 2.06 nM | 86.2% | 65.3 nM |
| YXEGTXTSDXXIXLDXKAQXKFIXXLIXGGPSSGAPPPS (Y-Aib-EGT-αMeF(2F)-TSD-4Pal-Aib-I-αMeL-LD-Orn-K((2-[2-(2-Amino-ethoxy)-ethoxy]-acetyl)2-(γ-Glu)-CO-(CH2)12-CO2H)AQ-Aib-K((2-[2-(2-Amino-ethoxy)-ethoxy]-acetyl)2-(γ-Glu)-CO-(CH2)12-CO2H)FI-(D-Glu)-αMeY-LI-Orn-GGPSSGAPPPS-NH2) [Example 406] | > 9950 nM | 0.351 nM | 98.5% | 0.00896 nM | 101% | 0.527 nM | – | 9.21 nM |
| YXEGTXTSDXXIXLDXKAQXEFIXXLIKGGPSSGAPPPS (Y-Aib-EGT-αMeF(2F)-TSD-4Pal-Aib-I-αMeL-LD-Orn-K((2-[2-(2-Amino-ethoxy)-ethoxy]-acetyl)2-(10-(4-carboxyphenoxy)decanoyl))AQ-Aib-EFI-(D-Glu)-αMeY-LIK((2-[2-(2-Amino-ethoxy)-ethoxy]-acetyl)2-(10-(4-carboxyphenoxy)decanoyl))GGPSSGAPPPS-NH2) [Example 395] | > 9950 nM | 0.377 nM | 90.8% | 0.0127 nM | 93.1% | 0.327 nM | 57.8% | 6.26 nM |
| YXEGTXTSDXXIXLDXKAQXKFIXXLIXGGPSSGAPPPS (Y-Aib-EGT-αMeF(2F)-TSD-4Pal-Aib-I-αMeL-LD-Orn-K((2-[2-(2-Amino-ethoxy)-ethoxy]-acetyl)3-(γ-Glu)-CO-(CH2)10-CH3)AQ-Aib-K((2-[2-(2-Amino-ethoxy)-ethoxy]-acetyl)3-(γ-Glu)-CO-(CH2)10-CH3)FI-(D-Glu)-αMeY-LI-Orn-GGPSSGAPPPS-NH2) [Example 433] | > 9950 nM | 0.128 nM | 102% | 0.00972 nM | 94% | 0.136 nM | – | 2.63 nM |
| YXEGTXTSDXXIXLDXKAQXEFIXXLIKGGPSSGAPPPS (Y-Aib-EGT-αMeF(2F)-TSD-4Pal-Aib-I-αMeL-LD-Orn-K((2-[2-(2-Amino-ethoxy)-ethoxy]-acetyl)-(γ-Glu)-(10-(4-carboxyphenoxy)decanoyl))AQ-Aib-EFIe-αMeY-LIK((2-[2-(2-Amino-ethoxy)-ethoxy]-acetyl)-(γ-Glu)-(10-(4-carboxyphenoxy)decanoyl))GGPSSGAPPPS-NH2) [Example 361] | > 9950 nM | 0.58 nM | 98.2% | 0.0121 nM | 107% | 1.44 nM | 88.8% | 43 nM |
| YXEGTXTSDXXIXLDXKAQXKFIXXLIXGGPSSGAPPPS (Y-Aib-EGT-αMeF(2F)-TSD-4Pal-Aib-I-αMeL-LD-Orn-K((2-[2-(2-Amino-ethoxy)-ethoxy]-acetyl)2-(γ-Glu)-(10-(4-carboxyphenoxy)decanoyl))AQ-Aib-K((2-[2-(2-Amino-ethoxy)-ethoxy]-acetyl)2-(γ-Glu)-(10-(4-carboxyphenoxy)decanoyl))FI-(D-Glu)-αMeY-LI-Orn-GGPSSGAPPPS-NH2) [Example 408] | > 9950 nM | 0.227 nM | 102% | 0.00888 nM | 99.7% | 0.299 nM | – | 5.92 nM |
| YXEGTXTSDXXIXLDXKAQXKFIXXLIXGGPSSGAPPPS (Y-Aib-EGT-αMeF(2F)-TSD-4Pal-Aib-I-αMeL-LD-Orn-K((2-[2-(2-Amino-ethoxy)-ethoxy]-acetyl)2-(γ-Glu)-CO-(CH2)10-CH3)AQ-Aib-K((2-[2-(2-Amino-ethoxy)-ethoxy]-acetyl)2-(γ-Glu)-CO-(CH2)10-CH3)FI-(D-Glu)-αMeY-LI-Orn-GGPSSGAPPPS-NH2) [Example 413] | > 9950 nM | 0.234 nM | 96.9% | 0.0146 nM | 101% | 0.422 nM | – | 5.47 nM |
